Test results reported in paper PMC5039685 (Theranostics, 2016).

Target: GST-Src (UniProt P12931 1-536)
Experiment: pull-down

B1: (His)6-tagged EB1 (natural protein, UniProt Q15691 1-268, looked up)
chain: MAVNVYSTSVTSDNLSRHDMLAWINESLQLNLTKIEQLCSGAAYCQFMDMLFPGSIALKKVKFQAKLEHEYIQNFKILQAGFKRMGVDKIIPVDKLVKGKFQDNFEFVQWFKKFFDANYDGKDYDPVAARQGQETAVAPSLVAPALNKPKKPLTSSSAAPQRPISTQRTAAAPKAGPGVVRKNPGVGNGDDEAAELMQQVNVLKLTVEDLEKERDFYFGKLRNIELICQENEGENDPVLQRIVDILYATDEGFVIPDEGGPQEEQEEY
- binding result: binds
